This assay concerns the target membrane protein on P. aeruginosa (whole cells, membrane fractions, solubilized membrane proteins of (Pseudomonas aeruginosa)).

recombinant human IFN-γ (rH IFN-γ), sequence (P01579 24-166 limits assumed): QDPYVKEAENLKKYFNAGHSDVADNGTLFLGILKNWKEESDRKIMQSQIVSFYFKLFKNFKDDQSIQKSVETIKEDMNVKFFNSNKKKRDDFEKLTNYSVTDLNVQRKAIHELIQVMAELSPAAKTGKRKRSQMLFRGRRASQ

“recombinant human IFN-γ (rH IFN-γ) (from UniProt P01579 24-166) (ligand)” came in with a percent of bacterial cells that bound IFN-γ of 73%.

Values taken from US20080194611A1, “Modulation of Cell Barrier Dysfunction” (priority 2005, published 2008).
